Here are results for 7 sequences from the DeepSol protein solubility set.

The nature of the data set: soluble on expression in E. coli; label from the status in PepcDB or PDB records.
In the case of “SLARELMRTQKEIFALILDFAKRTDSIRAVTLEGSRANPNIKQDKFCDYDISFFLNAKNLESFKNNEEWLKIFGNILMLQKPESMELYPPDLREGWFSFLVLFDDGVRIDLSLIPLADIEWYKDNERLMRVLLDKDNQFMPINEPSDSAFFIKPLTKQSFLDCCNELYWLYVCTHKDILRGELLLANAHLAMMREGLLILLSWRVALRQNNFAFSLGKEYKFLPHFLEPKERKTLYKCYKLGDLKQAQKTLKIMEKFFAKNARELIKVHFKDLHTLPYAKVAKQYVRILKHKIV”, the “soluble on expression in E. coli” value is “soluble”. With “MPVEHLDVLIVGAGLSGVGAAYHLMKHCPGKSFALLEGRAAMGGTWDLFRYPGIRSDSDMFTLGYNFKPWSDPKAIADGPSIRRYIEETARENGIDRKIRYRHRVLRADWDSANARWNLDVQRGDEPEPLRMTAQFLLMCTGYYRYEAGYTPEFVGREDFAGQVVHPQLWPEDLDYSGKKVVVIGSGATAVTLVPSLTDKAAHVTMLQRSPSYVITLPQKDAISNFLRRFLPETWIYRQARARNVAMQMVFFMLARTFPGLVRKALLKLASLQLGKRFDIRHFSPRYKPWDERVCAVPDGDLFKVLRKGKASVVTEHIDRFVERGIRLKTGEVLEADIIVTATGLDLVMFGGAELAVDGKPFLVNQSMGYRGIMLRDLPNLAAVVGYTNASWTLKADLSSEYFCRLINHMDATGMRQVTARDSTGDVREEPFLNLDSGYIQRAAERMPKQGDRMPWKLYQNYVLDLALLRYGKVEDGYLVFSSPAPQRQAGGAAVQALGLEHHHHHH”, the “soluble on expression in E. coli” value was “not soluble”.

For “GMTYQALMFDIDGTLTNSQPAYTTVMREVLATYGKPFSPAQAQKTFPMAAEQAMTELGIAASEFDHFQAQYEDVMASHYDQIELYPGITSLFEQLPSELRLGIVTSQRRNELESGMRSYPFMMRMAVTISADDTPKRKPDPLPLLTALEKVNVAPQNALFIGDSVSDEQTAQAANVDFGLAVWGMDPNADHQKVAHRFQKPLDILELFK”, the “soluble on expression in E. coli” value is given as “soluble”. For “MRLLYVIKKENPMDQMPNCPKCQSEYVYHDSINFVCPDCGNEWDNNEIQESDDDQLIVKDSNGNLLAEGDNVLLIKDLKLKGSSEVLKKGTKFKNIRLVNGDHNVDCGKIMLKSEFLKKALEHHHHHH”, the “soluble on expression in E. coli” value is “soluble”. Consider “GVGRLDDLKRSPLFQNVPEDAMREALKVVTERNFQPDELVVEQDAEGEALHLVTTGVVRVSRVSLGGRERVLGDIYAPGVVGETAVLAHQERSASVRALTPVRTLMLHREHFELILRRHPRVLWNLAEMLARRVTFLNDELIAFGQNTEAALTHVFANLYRQRLAAGVPQPEVLPLGTQDIMARTSSSRETVSRVLKRLEAHNILEVSPRSVTLLDLAALEALSFEGAETD”, for which the “soluble on expression in E. coli” value is recorded as “soluble”.

For the sequence “MAICILHYTNAQLARDWSFQQMCNFWGGEQTYHARKDGFKSLEGDKCTFNFPKASDNQKSAQQYCEDNVPYHINNAEASEYKTTCEAEATLICKSGWVQMFGRCYKITKTMMTRDKAEKHCKNQQDQTSTIAFMHREALPFRWNDYFTRVSRIWMDASEVVTNDLIYDVEGGNVLLAFDGYKYNLPNVAIARVSKDETAMVLCEYTPPMTKSESNYLLRRYGEIYYPPLVTSEAVYIRTTSSRIRNEEDKLADHKYCTEVMKPVFRGGRAQSASPTQGLHMPTQMRGINKSAPFKQNPTIKGEAVPFPLDNAIWRKGEPNESCDAATWSSAVVLSRRENEGLEVMSDARYAPIYCEQIVKGLSYTKCPDGFVEYYRKNEGKTWCHKYVWDDTANYDNAEQKCQQLGAHLSSFTSDEEFQFLNDMIAKSEQLPNTDYIEVLLGARRRKRCNDLSIVGRGGFSSDKESECSRRRVFEWLHDVAENPPNFLDAYWPSPYEPNHALVDEECLVMMSGKTNGGMVMEQGN”, the “soluble on expression in E. coli” value is listed as “not soluble”. Turning to “MQLPVMPPVSPMLAKSVTAIPPDASYEPKWDGFRSICFRDGDQVELGSRNERPMTRYFPELVAAIRAELPHRCVIDGEIIIATDHGLDFEALQQRIHPAESRVRMLADRTPASFIAFDLLALGDDDYTGRPFSERRAALVDAVTGSGADADLSIHVTPATTDMATAQRWFSEFEGAGLDGVIAKPPHITYQPDKRVMFKIKHLRTADCVVAGYRVHKSGSDAIGSLLLGLYQEDGQLASVGVIGAFPMAERRRLLTELQPLVTSFDDHPWNWAAHVAGQRTPRKNEFSRWNVGKDLSFVPLRPERVVEVRYDRMEGARFRHTAQFNRWRPDRDPRSCSYAQLERPLTVSLSDIVPGLR”, the “soluble on expression in E. coli” value is on record as “not soluble”.
